One substance from patent US20120159674A1 can be followed below.

pIC50: −log10 of the molar value.

The assay addresses Cry1Ab receptor proteins in brush border membrane vesicle (BBMV) preparations from the midgut of Heliothis zea larvae. Description: homologous competition with 0.25 nM ^125I Cry1Ab on H. zea BBMV (0.10 mg protein/ml).

The term pIC50 denotes the negative decadic logarithm of the IC50, by convention in mol/L. As to “Cry1Ab core toxin (trypsin truncated Cry1Ab)”, the pIC50 was 8.70.
